From the supplement of paper PMC9112550, “Optimization of the antimicrobial peptide Bac7 by deep mutational scanning” (BMC Biology, 2022)

System: Escherichia coli TOP10
Test: shrunken log2 fold change of peptide-encoding DNA abundance (4.5 h post-induction vs induction); higher = less antimicrobial activity (less host growth inhibition)
Conditions: time post-induction: 4.5 h; library: site-saturation at positions 5, 18, 19, 20
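Also: peptides expressed intracellularly from a pBAD plasmid library in pooled LB shake-flask culture, induced with 0.3% L-arabinose, DNA abundance read by NGS, three biological replicates, DESeq2 with apeglm shrinkage.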

| Sequence | shrunken log2 fold change |
| --- | --- |
| RRIRRRPPRLPRPRPRPQQGPRP | 0.0446 |
| RRIRKRPPRLPRPRPRPVGVPRP | 0.515 |
| RRIRKRPPRLPRPRPRPCHWPRP | 0.139 |
| RRIRERPPRLPRPRPRPFSPPRP | -0.745 |
| RRIRERPPRLPRPRPRPPDIPRP | -0.225 |
| RRIRPRPPRLPRPRPRPMYQPRP | -0.207 |
| RRIRIRPPRLPRPRPRPEKTPRP | -0.0512 |
| RRIRTRPPRLPRPRPRPDLLPRP | -0.263 |
| RRIRLRPPRLPRPRPRPGESPRP | 0.0313 |
| RRIRSRPPRLPRPRPRPFVIPRP | -0.206 |
| RRIRLRPPRLPRPRPRPSLSPRP | -0.305 |
| RRIRLRPPRLPRPRPRPDERPRP | 0.0169 |
| RRIRNRPPRLPRPRPRPAITPRP | 0.134 |
| RRIRPRPPRLPRPRPRPSPMPRP | -0.259 |
| RRIRHRPPRLPRPRPRPGRLPRP | 0.129 |
| RRIRIRPPRLPRPRPRPPYMPRP | -1.19 |
| RRIRWRPPRLPRPRPRPRGFPRP | 0.25 |
| RRIRKRPPRLPRPRPRPGCMPRP | 0.993 |
| RRIRKRPPRLPRPRPRPFDVPRP | 0.0305 |
| RRIRKRPPRLPRPRPRPCAKPRP | 0.54 |

| Sequence | shrunken log2 fold change |
| --- | --- |
| RRIRSRPPRLPRPRPRPMNKPRP | -0.6 |
| RRIRTRPPRLPRPRPRPMFHPRP | -0.52 |
| RRIRRRPPRLPRPRPRPFAPPRP | 0.368 |
| RRIRKRPPRLPRPRPRPRCQPRP | 0.099 |
| RRIRCRPPRLPRPRPRPQYDPRP | -0.644 |
| RRIRRRPPRLPRPRPRPKIGPRP | 0.396 |
| RRIRSRPPRLPRPRPRPSRNPRP | -0.129 |
| RRIRMRPPRLPRPRPRPFIIPRP | -0.268 |
| RRIRYRPPRLPRPRPRPNKQPRP | -0.0515 |
| RRIRQRPPRLPRPRPRPHAFPRP | -0.0738 |
| RRIRVRPPRLPRPRPRPPSIPRP | 0.231 |
| RRIRTRPPRLPRPRPRPQHFPRP | -0.0212 |
| RRIRWRPPRLPRPRPRPRHMPRP | -0.139 |
| RRIRDRPPRLPRPRPRPKSKPRP | -0.105 |
| RRIRFRPPRLPRPRPRPEEPPRP | 0.248 |
| RRIRPRPPRLPRPRPRPCWMPRP | -0.126 |
| RRIRIRPPRLPRPRPRPGRDPRP | 0.0442 |
| RRIRERPPRLPRPRPRPYVIPRP | -0.172 |
| RRIRNRPPRLPRPRPRPIAFPRP | -0.111 |
| RRIRDRPPRLPRPRPRPENIPRP | -0.172 |

| Sequence | shrunken log2 fold change |
| --- | --- |
| RRIRVRPPRLPRPRPRPHGVPRP | 0.0673 |
| RRIRWRPPRLPRPRPRPLVHPRP | -0.11 |
| RRIRPRPPRLPRPRPRPQNHPRP | 0.181 |
| RRIRLRPPRLPRPRPRPTVGPRP | 0.0924 |
| RRIRDRPPRLPRPRPRPRHPPRP | 0.0563 |
| RRIRPRPPRLPRPRPRPYLHPRP | -0.471 |
| RRIRNRPPRLPRPRPRPWFYPRP | -0.154 |
| RRIRKRPPRLPRPRPRPYPMPRP | -0.2 |
| RRIRPRPPRLPRPRPRPWFRPRP | -0.0017 |
| RRIRCRPPRLPRPRPRPVGLPRP | 0.0659 |
| RRIRQRPPRLPRPRPRPIREPRP | -0.0225 |
| RRIRWRPPRLPRPRPRPCELPRP | 0.0544 |
| RRIRHRPPRLPRPRPRPILKPRP | -0.348 |
| RRIRLRPPRLPRPRPRPAFHPRP | -0.0947 |
| RRIRDRPPRLPRPRPRPAALPRP | 0.488 |
| RRIRWRPPRLPRPRPRPPAQPRP | 0.54 |
| RRIRIRPPRLPRPRPRPSIWPRP | -0.0823 |
| RRIRNRPPRLPRPRPRPCSHPRP | -0.331 |
| RRIRPRPPRLPRPRPRPQQMPRP | -0.00373 |
| RRIRKRPPRLPRPRPRPGGKPRP | 0.123 |
